The assay concerns the target exendin-4, P26349. Description: radioligand inhibition binding (competition with 125I-exendin-4(9-39)). The conditions noted are these: chain shown with the change;; read off a plot.

Substitutions are numbered along the chain they refer to. In names and notes the source's numbering stands.

B1: glucagon-like peptide 1 receptor (GLP-1R), wild-type, P43220 Y289A (protein)
chain: RPQGATVSLWETVQKWREYRRQCQRSLTEDPPPATDLFCNRTFDEYACWPDGEPGSFVNVSCPWYLPWASSVPQGHVYRFCTAEGLWLQKDNSSLPWRDLSECEESKRGERSSPEEQLLFLYIIYTVGYALSFSALVIASAILLGFRHLHCTRNYIHLNLFASFILRALSVFIKDAALKWMYSTAAQQHQWDGLLSYQDSLSCRLVFLLMQYCVAANYYWLLVEGVYLYTLLAFSVLSEQWIFRLYVSIGWGVPLLFVVPWGIVKALYEDEGCWTRNSNMNYWLIIRLPILFAIGVNFLIFVRVICIVVSKLKANLMCKTDIKCRLAKSTLTLIPLLGTHEVIFAFVMDEHARGTLRFIKLFTELSFTSFQGLMVAILYCFVNNEVQLEFRKSWERWRLEHLHIQRDSSMKPLKCPTSSLSSGATAGSSMYTATCQASCS
Regarding B1, the log10 ratio was 0 ΔpKi.

B2: glucagon-like peptide 1 receptor (GLP-1R), wild-type, P43220 G377A (protein)
chain: B1 chain with A266Y, G354A
Take B2: the log10 ratio was -0.4 ΔpKi.

B3: glucagon-like peptide 1 receptor (GLP-1R), wild-type, P43220 E373A (protein)
chain: B1 chain with A266Y, E350A
For B3, the log10 ratio is -1.3 ΔpKi.

B4: glucagon-like peptide 1 receptor (GLP-1R), wild-type, P43220 L384A (protein)
chain: B1 chain with A266Y, L361A
In the case of B4, the log10 ratio was -1.2 ΔpKi.

B5: glucagon-like peptide 1 receptor (GLP-1R), wild-type, P43220 F385A (protein)
chain: B1 chain with A266Y, F362A
For B5, the log10 ratio is -0.2 ΔpKi.

B6: glucagon-like peptide 1 receptor (GLP-1R), wild-type, P43220 C296A (protein)
chain: B1 chain with A266Y, C273A
As for B6, the log10 ratio is -1.8 ΔpKi.

B7: glucagon-like peptide 1 receptor (GLP-1R), wild-type, P43220 E387A (protein)
chain: B1 chain with A266Y, E364A
Turning to B7, the log10 ratio is -0.4 ΔpKi.

B8: glucagon-like peptide 1 receptor (GLP-1R), wild-type, P43220 Q213A (protein)
chain: B1 chain with Q190A, A266Y
Turning to B8, the log10 ratio was -0.15 ΔpKi.

B9: glucagon-like peptide 1 receptor (GLP-1R), wild-type, P43220 N300A (protein)
chain: B1 chain with A266Y, N277A
Take B9: the log10 ratio is -1.8 ΔpKi.

B10: glucagon-like peptide 1 receptor (GLP-1R), wild-type, P43220 R299A (protein)
chain: B1 chain with A266Y, R276A
For the molecule B10, the log10 ratio is -1.5 ΔpKi.

B11: glucagon-like peptide 1 receptor (GLP-1R), wild-type, P43220 L379A (protein)
chain: B1 chain with A266Y, L356A
Take B11: the log10 ratio was -0.95 ΔpKi.

B12: glucagon-like peptide 1 receptor (GLP-1R), wild-type, P43220 W214A (protein)
chain: B1 chain with W191A, A266Y
In the case of B12, the log10 ratio was -0.25 ΔpKi.

B13: glucagon-like peptide 1 receptor (GLP-1R), wild-type, P43220 D222A (protein)
chain: B1 chain with D199A, A266Y
With B13, the log10 ratio was -0.25 ΔpKi.

B14: glucagon-like peptide 1 receptor (GLP-1R), wild-type, P43220 E292A (protein)
chain: B1 chain with A266Y, E269A
On to B14, for which the log10 ratio is -1.8 ΔpKi.

B15: glucagon-like peptide 1 receptor (GLP-1R), wild-type, P43220 R376A (protein)
chain: B1 chain with A266Y, R353A
Regarding B15, the log10 ratio was -0.35 ΔpKi.

B16: glucagon-like peptide 1 receptor (GLP-1R), wild-type, P43220 L217A (protein)
chain: B1 chain with L194A, A266Y
Take B16: the log10 ratio is -0.3 ΔpKi.

B17: glucagon-like peptide 1 receptor (GLP-1R), wild-type, P43220 L201A (protein)
chain: B1 chain with L178A, A266Y
Take B17: the log10 ratio was -0.3 ΔpKi.

B18: glucagon-like peptide 1 receptor (GLP-1R), wild-type, P43220 S301A (protein)
chain: B1 chain with A266Y, S278A
For B18, the log10 ratio is -0.3 ΔpKi.

B19: glucagon-like peptide 1 receptor (GLP-1R), wild-type, P43220 T378A (protein)
chain: B1 chain with A266Y, T355A
On to B19, for which the log10 ratio was -0.5 ΔpKi.

The values above are taken from paper PMC4912689, “The Extracellular Surface of the GLP-1 Receptor Is a Molecular Trigger for Biased Agonism” (Cell, 2016).
